The values that follow come from paper PMC6504561.

pKd: −log10 of the molar value.

A word on the pKd: it is −log10 of the Kd, conventionally taken in molar units.

One test deals with DYNLT1 (Mus musculus) (UniProt P51807). The experiment in a line: NMR. Particulars: cited from earlier work.
Test [1] addresses FITC-labelled ARHGEF2 peptide 142-157 phosphorylated on Ser151 (not stated (human or mouse cDNA cloned)). The experiment in a line: MST.
Test [2] concerns the target FITC-labelled ARHGEF2 peptide 876-891 phosphorylated on Ser885 (not stated (human or mouse cDNA cloned)). The experiment in a line: MST.

Chain of ARHGEF2 peptide 133-161 (Q60875 133-161): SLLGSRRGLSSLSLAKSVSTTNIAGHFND
Chain of DYNLT1 (Mus musculus) (P51807 whole entry): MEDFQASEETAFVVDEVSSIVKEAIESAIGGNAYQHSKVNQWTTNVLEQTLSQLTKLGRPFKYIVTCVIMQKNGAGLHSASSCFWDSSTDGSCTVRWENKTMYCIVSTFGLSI

As to “ARHGEF2 peptide 133-161 (from UniProt Q60875)”, the pKd with DYNLT1 (Mus musculus) is 4.10. As for “GST-14-3-3 (from UniProt P63101 1-245) (natural protein)”, the pKd in test [1] was 4.94; in test [2], 5.64.
